Reference: paper PMC11079477 (iScience, 2024)
Where two headings read alike, the source gives them in different places.

Assays:
[1] = target: the molecule itself; assay: reducing SDS-PAGE and immunoblot
[2] = target: the molecule itself; assay: reducing SDS-PAGE and immunoblot of a membrane preparation
[3] = target: the molecule itself
[4] = target: the molecule itself; assay: non-reducing SDS-PAGE and Western blot
[5] = target: the molecule itself; assay: non-reducing SDS-PAGE
[6] = target: the molecule itself; assay: 4M urea SDS-PAGE

B1: PfP2-HA of P. falciparum 3D7 P2-HA glmS transgenic parasites (natural protein, Plasmodium falciparum 3D7, UniProt O00806 1-112, looked up)
chain: MAMKYVAAYLMCVLGGNENPSTKEVKNVLGAVNADVEDEVLNNFIDSLKGKSCHELITDGLKKLQNIGGGVAAAPAGAAAVETAEAKKEDKKEEKKEEEEEEEDDLGFSLFG
stoichiometry N [1]: 4

B2: PfP2 of wild type P. falciparum 3D7 parasites (natural protein, UniProt O00806 1-112, looked up)
chain: MAMKYVAAYLMCVLGGNENPSTKEVKNVLGAVNADVEDEVLNNFIDSLKGKSCHELITDGLKKLQNIGGGVAAAPAGAAAVETAEAKKEDKKEEKKEEEEEEEDDLGFSLFG
modifications: 11th methionine (Met11) oxidized in the parasite membrane preparation (ESI MS/MS)
stoichiometry N [2]: 2
stoichiometry N [1]: 4

B3: LAFS-induced alkylated rec. PfP2 tetramer (natural protein, Plasmodium falciparum 3D7, UniProt O00806 1-112, looked up)
chain: MAMKYVAAYLMCVLGGNENPSTKEVKNVLGAVNADVEDEVLNNFIDSLKGKSCHELITDGLKKLQNIGGGVAAAPAGAAAVETAEAKKEDKKEEKKEEEEEEEDDLGFSLFG
modifications: cysteines alkylated using iodoacetamide (IAA) after reduction with DTT
stoichiometry N [3]: 4

B4: PfP2C12A (Clone 1, C12A) (natural protein, Plasmodium falciparum 3D7, UniProt O00806 1-112, looked up)
chain: MAMKYVAAYLMAVLGGNENPSTKEVKNVLGAVNADVEDEVLNNFIDSLKGKSCHELITDGLKKLQNIGGGVAAAPAGAAAVETAEAKKEDKKEEKKEEEEEEEDDLGFSLFG
stoichiometry N [4]: 2

B5: 6x His tag recombinant PfP2 (P. falciparum 60S stalk ribosomal protein P2) (natural protein, Plasmodium falciparum 3D7, UniProt O00806 1-112, looked up)
chain: MAMKYVAAYLMCVLGGNENPSTKEVKNVLGAVNADVEDEVLNNFIDSLKGKSCHELITDGLKKLQNIGGGVAAAPAGAAAVETAEAKKEDKKEEKKEEEEEEEDDLGFSLFG
stoichiometry N [5]: 4

B6: LAFS-induced denaturation-resistant rec. PfP2 tetramer (natural protein, Plasmodium falciparum 3D7, UniProt O00806 1-112, looked up)
chain: MAMKYVAAYLMCVLGGNENPSTKEVKNVLGAVNADVEDEVLNNFIDSLKGKSCHELITDGLKKLQNIGGGVAAAPAGAAAVETAEAKKEDKKEEKKEEEEEEEDDLGFSLFG
modifications: 11th methionine (Met11) oxidized; Met11 S-O-S Met11 linkages between chains as the paper proposes
stoichiometry N [6]: 4
